From CN117412992A (NOVIMMUNE SA, dated 2024)
Blank lines part the entries; values can stand above or below the binder they belong to.

Assays:
[1] = target: T1, human PD-L1 on cells (hPD-L1-transfected CHO cells; IFNg-induced HT-1080 tumour cells) (human, UniProt Q9NZQ7 19-290); experiment: cell-based competition: inhibition of human PD-1-moFc binding to IFNg-induced PD-L1+ CD47+ HT-1080 cells, CellInsight CX5
T1 construct: whole, on cells

[2] = target: T2, recombinant human PD-L1 soluble protein, biotinylated (ACROBiosystems) (human, UniProt Q9NZQ7 19-238, biotinylated); experiment: BLI (Table 7) and ELISA (Fig. 1A) on recombinant PD-L1
T2 construct: Bought soluble protein; also called 重组人PD-L1; 人PD-L1

[3] = target: T1, human PD-L1 on cells …; experiment: flow cytometry on IFNg-preactivated PD-L1+ CD47+ HT-1080 cells, co-engagement of both targets
[4] = target: T3, human CD47 on cells (Raji, Nalm-6, HT-1080 tumour cells; human red blood cells) (human, UniProt Q08722 19-323); experiment: flow cytometry on human red blood cells (CD47+, PD-L1-)
T3 construct: whole, on cells

IC50 [1]: 2.52 pM
B1: S79 anti-PD-L1 mAb (antibody, human IgG1, lambda, V domains shown)
VH: not shown
VL: QSALTQPASVSGSPGQSITISCTGTSSDVFRPPLVSWYQQHPGKAPKLMIYFASLRPSGVSNRFSGSKSGNTASLTISGLQAEDEADYYCSSWDHTGDGHVFGGGTKLTVLG
notes: also called S79_Sc3_1G7_VLCL2 aPDL1 IGLV2-23; S79抗PD-L1 mAb

IC50 [1]: 0.84 pM
B2: S100 anti-PD-L1 mAb (antibody, human IgG1, lambda, V domains shown)
VH: not shown
VL: QSVLTQPPSASGTPGQRVTISCSGSSSNIENKPVNWYQQLPGTAPKLLIYHDTTRPSGVPDRFSGSKSGTSASLAISGLQSEDEADYYCAAWDFATWPATEVFGGGTKLTVLG
notes: bivalent monospecific anti-PD-L1 IgG; also called S100抗PD-L1 mAb

binding result [2]: binds
binding result [3]: binds
binding result [4]: binds
B3: K2xS23 CD47xPD-L1 bispecific antibody (bispecific antibody, human IgG1, kappa, lambda)
heavy: not shown
light 1: not shown
light 2: QSALTQPASVSGSPGQSITISCTGTSSDVAKIPLVSWYQQHPGKAPKLMIYFASLRPSGVSNRFSGSKSGNTASLTISGLQAEDEADYYCSSWDNAGDGHVFGGGTKLTVLGQPKAAPSVTLFPPSSEELQANKATLVCLISDFYPGAVTVAWKADSSPVKAGVETTTPSKQSNNKYAASSYLSLTPEQWKSHRSYSCQVTHEGSTVEKTVAPTECS
notes: kappa-lambda body with a common heavy chain; also called K2xS23 bsAb
